According to patent US20250011468A1:

B1: 224F3 (anti-FIXa reference antibody, Scheiflinger et al.) (antibody, from another filing, human IgG1, V domains shown)
VH: QVQMQQSGAELVKPGASVKLSCKASGYTFTSQDINWVRQRPEQGLEWIGWIFPGDGSTKYNEKLKGKATLTTDKSSSTAFMQLSRLTSEDSAVYFCARSAYYRYDGSYYYAMDYWGQGTSVTVSS
VL: QIVLTQSPAIMSASLGEEITLTCSASSSVSYMLWYQQKSGTSPKLLIYTTSNLASGVPSRFSGTGSGTFYSLTISSVEAEDAADYYCHQWSSYPRTFGGGTKLEIKR
B2: mAb1-1582 (monovalent one-armed version of the anti-FIXa antibody 224F3) (antibody, from another filing, V domains shown)
VH: B1 VH
VL: B1 VL

Biological target: human plasma-derived FIXa (Haematologic Technologies Inc) (human) (UniProt P00740)
Sequence (P00740 47-191, chain 1 of 2): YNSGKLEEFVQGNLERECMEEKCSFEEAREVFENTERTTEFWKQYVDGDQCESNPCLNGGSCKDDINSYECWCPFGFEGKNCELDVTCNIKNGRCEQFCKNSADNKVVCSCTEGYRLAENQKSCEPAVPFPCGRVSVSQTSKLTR
Sequence (P00740 227-461, chain 2 of 2): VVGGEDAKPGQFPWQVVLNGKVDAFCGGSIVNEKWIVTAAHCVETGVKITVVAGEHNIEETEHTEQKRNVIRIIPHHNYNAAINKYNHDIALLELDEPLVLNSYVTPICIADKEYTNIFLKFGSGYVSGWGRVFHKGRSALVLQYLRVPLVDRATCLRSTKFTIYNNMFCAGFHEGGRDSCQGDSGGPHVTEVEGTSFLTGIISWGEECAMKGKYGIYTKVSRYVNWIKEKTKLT
Assay: cell-based or functional assay

Row | Binder | FXa generation rate at 3.2 nM mAb [pM/min] | FXa generation rate at 6.3 nM mAb [pM/min] | FXa generation rate at 12.5 nM mAb [pM/min] | FXa generation rate at 25 nM mAb [pM/min] | FXa generation rate at 50 nM mAb [pM/min] | FXa generation rate at 100 nM mAb [pM/min] | FXa generation rate at 200 nM mAb [pM/min] | Peak stimulatory activity relative to 224F3 (fold relative to 224F3) | Stimulation index at 3260 nM OA antibody [fold]
1 | B1 | 20 | 17.4 | 14.7 | 9 | 9 | 7.2 | 5.5 | 1 | –
2 | B2 | – | – | – | – | – | – | – | – | < 10
